Measurements published in paper PMC7570391, “Cyclic Di-adenosine Monophosphate Regulates Metabolism and Growth in the Oral Commensal Streptococcus mitis” (Microorganisms, 2020).
One block for each molecule: values may come before it.

Experiments:
[1] = biological target: CdaA_(103–285), truncated S. mitis CdaA-type diadenylate cyclase (SM12261_1351) lacking the transmembrane helices (Streptococcus mitis CCUG 31611); assay: SEC; Superose 6 Increase 10/300 GL on an ÄKTA Pure 25; SEC buffer 1x PBS pH 7.4 with 10% glycerol; apparent molecular weight from vE/v0 against gel filtration markers (12,000-200,000 Da)
[2] = tested on: Nc1ncnc2c1ncn2[C@@H]1O[C@H](COP(=O)(O)O[C@H]2[C@@H](O)[C@H](n3cnc4c(N)ncnc43)O[C@@H]2COP(=O)(O)O)[C@@H](O)[C@H]1O; assay: purified protein; conditions: 1 mM MnCl2, 50 mM Tris-HCl pH 7.5, 37 °C, 5 μM enzyme, product AMP
Excerpt: AMP formation, reversed-phase HPLC, Michaelis-Menten fit on Pde1_53–657

[3] = tested on: [H][C@@]1(O)[C@]2([H])OP(=O)(O)OC[C@@]3([H])O[C@@]([H])(n4cnc5c(N)ncnc54)[C@]([H])(O)[C@]3([H])OP(=O)(O)OC[C@@]2([H])O[C@@]1([H])n1cnc2c(N)ncnc21; assay: purified protein; conditions: 1 mM MnCl2, 50 mM Tris-HCl pH 7.5, 37 °C, 2.5 μM enzyme, product pApA
Excerpt: pApA formation, reversed-phase HPLC, Michaelis-Menten fit on Pde1_53–657

[4] = biological target: Pde2, full-length S. mitis DhhP-type phosphodiesterase (SM12261_1122) (Streptococcus mitis CCUG 31611); assay: SEC; Superose 6 Increase 10/300 GL on an ÄKTA Pure 25; SEC buffer 1x PBS pH 7.4 with 10% glycerol; apparent molecular weight from vE/v0 against gel filtration markers (12,000-200,000 Da)
[5] = substrate: Nc1ncnc2c1ncn2[C@@H]1O[C@H](COP(=O)(O)O[C@H]2[C@@H](O)[C@H](n3cnc4c(N)ncnc43)O[C@@H]2COP(=O)(O)O)[C@@H](O)[C@H]1O; assay: AMP formation, reversed-phase HPLC, Michaelis-Menten fit; format: biochemical, Streptococcus mitis; conditions: 1 mM MnCl2, 50 mM Tris-HCl pH 8.5, 37 °C, 0.05 μM enzyme, product AMP
Excerpt: (§1) AMP formation, reversed-phase HPLC, Michaelis-Menten fit on Pde2

[6] = substrate: [H][C@@]1(O)[C@]2([H])OP(=O)(O)OC[C@@]3([H])O[C@@]([H])(n4cnc5c(N)ncnc54)[C@]([H])(O)[C@]3([H])OP(=O)(O)OC[C@@]2([H])O[C@@]1([H])n1cnc2c(N)ncnc21; assay: as above; format: biochemical, Streptococcus mitis; conditions: 1 mM MnCl2, 50 mM Tris-HCl pH 8.5, 37 °C, 10 μM enzyme, product AMP
Excerpt: as §1

Molecule: Pde1_53–657 (Streptococcus mitis NCTC 12261)
- Km [2]: 152.4 ± 03.6 µM
- Vmax [2]: 748 µM/min
- kcat [2]: 2.49 ± 0.61 s⁻¹
- kcat/Km [2]: 16400 M⁻¹ s⁻¹
- Km [3]: 241.3 ± 11.6 µM
- Vmax [3]: 621 µM/min
- kcat [3]: 4.14 ± 1.99 s⁻¹
- kcat/Km [3]: 17000 M⁻¹ s⁻¹

B1: Pde2 (Streptococcus mitis NCTC 12261) (protein)
chain: MDICHQILEKIKEYDTIIIHRHMKPDPDALGSQVGLKALLKHHFPEKTIKAVGFDEPTLTWMAEMDLVEDSAYQGALVIVCDTANTARIDDKRYSQGDFLIKIDHHPNDDVYGDLSWVDTSSSSASEMITLFAQTTQLALSDRAAELLFAGIIGDTGRFLYPSTTERTLRLAAYLREHNFDFAALTRKMDTMSYKIAKLQGYIYDHLEVDENGAARVILSQEILKRFNVTDAETAAIVGAPGRIDSVSLWGIFVEQADGHYRVRLRSKIHPINEIAKEHDGGGHPLASGANSYSLEENEIIYQKLKNLLKN
- Km [5]: 877 ± 312 µM
- Vmax [5]: 10600 µM/min
- kcat [5]: 3530 ± 623 s⁻¹
- kcat/Km [5]: 4.02e+06 M⁻¹ s⁻¹
- Km [6]: 148.5 ± 34.8 µM
- Vmax [6]: 46.8 µM/min
- kcat [6]: 0.078 ± 0.005 s⁻¹
- kcat/Km [6]: 525 M⁻¹ s⁻¹

Further lines, results first:

- stoichiometry N [1]: 2
Molecule: CdaA_(103–285), truncated S. mitis CdaA-type diadenylate cyclase (SM12261_1351) lacking the transmembrane helices (domain or fragment)

- stoichiometry N [4]: 2
Molecule: Pde2, full-length S. mitis DhhP-type phosphodiesterase (SM12261_1122) (enzyme)
